In test [1] the target is C3b (component obtained after hydrolysis of complement component 3, C3) (UniProt P01024). The test can be described thus: ELISA screen of optimized Nf1 variants.
The target is the same in test [2]. The test is described as follows: BLI (Octet RED96), GFP tagged Nanofitin captured on anti-GFP Nanofitin biosensor, C3b in solution, 1:1 fit.
Test [3] shares this target. The test can be described thus: biolayer interferometry.
For test [4] the target is unchanged. The test is described as follows: biolayer interferometry; B10 recombinant from E. coli; untagged B10, recombinant from E. coli.
The target is the same in test [5]. The test can be described thus: biolayer interferometry; B10 by full chemical synthesis.

Positions count from the first letter of the chain named.

B1: B10 (SEQ ID NO: 25), GFP tagged anti-C3 Nanofitin (designed binder, not shown: large carriers)
chain: MVKVKFDATGEEKEVDTSKISAVYRTGKDVLFSYDDNGKIGWGYVSEKDAPKELLDLLARAERE
Consider B1, for which, in test [1], the OD 450 nm is above 4 OD 450 nm. Besides, in test [2], the dissociation constant (Kd) is 7.31 nM, the off-rate (koff) stood at 0.000433 s⁻¹ and the on-rate (kon) is 59200 M⁻¹ s⁻¹.

B2: B10 Nanofitin with N-terminal peptide (10-mers) tag and C-terminal peptide (15-mers) tag (designed binder, not shown: small tags and cut ends)
chain: B1 chain
In test [3], B2 returned an equilibrium dissociation constant (Kd) of 2.5 nM.

B3: H03 (SEQ ID NO: 26), GFP tagged anti-C3 Nanofitin (designed binder, not shown: large carriers)
chain: B1 chain with D7A, S21A, A22N, T26V
In turn, B3 showed an OD 450 nm in test [1] above 4 OD 450 nm. Moreover, in test [2], the Kd worked out at 2.89 nM, the koff is 0.000188 s⁻¹ and the kon turned out to be 65200 M⁻¹ s⁻¹.

B4: B10 Nanofitin with N-terminal 48 kDa protein (designed binder, not shown: small tags and cut ends)
chain: B1 chain
B4: the equilibrium dissociation constant (Kd) in test [3] came to 6.7 nM.

B5: B10 Nanofitin without N- or C-terminal tag (designed binder)
chain: B1 chain
Take B5: the dissociation constant (Kd) stood at 18.5 nM in test [4] and 18 nM in test [5].

B6: B10 Nanofitin with N-terminal peptide (10-mers) tag (designed binder, not shown: small tags and cut ends)
chain: B1 chain
Take B6: in test [3], the Kd stood at 8.2 nM.

B7: B10 Nanofitin with N-terminal peptide (10-mers) tag and C-terminal 30 kDa protein (designed binder, not shown: large carriers; small tags and cut ends)
chain: B1 chain
As to B7, the Kd in test [3] came out at 7.3 nM.

B8: B10 Nanofitin with N-terminal peptide (10-mers) tag and C-terminal Nanofitin (designed binder, not shown: small tags and cut ends)
chain: B1 chain
In test [3], B8 came in with a dissociation constant (Kd) of 11.5 nM.
